Experimental data reported in the FLAb antibody collection.

Assay: patients with anti-drug antibodies; higher = more immunogenic

Row | Protein | patients with anti-drug antibodies [%]
1 | unnamed (protein) chain 1: QVQLVESGGGVVQPGRSLRLSCAASGFTFSSFGMHWVRQAPGKGLEWVAYISSGSFTIYYADSVKGRFTISRDNSKNTLYLQMNSLRAEDTAVYYCARMRKGYAMDYWGQGTLVTVSS chain 2: DVVMTQSPLSLPVTLGQPASISCRSSQIIIHSDGNTYLEWFQQRPGQSPRRLIYKVSNRFSGVPDRFSGSGSGTDFTLKISRVEAEDVGVYYCFQGSHVPHTFGQGTKVEIK | 0
2 | unnamed (protein) chain 1: QVQLQESGPGLVKPSETLSLTCTVSGFSLTSYIVDWIRQPPGKGLEWIGVIWAGGSTGYNSALRSRVSITKDTSKNQFSLKLSSVTAADTAVYYCASAAYYSYYNYDGFAYWGQGTLVTVSS chain 2: DVVMTQSPLSLPVTLGQPASISCKSSQSLLYTDGKTYLYWFLQRPGQSPRRLIYLVSKLDSGVPDRFSGSGSGTDFTLKISRVEAEDVGVYYCLQSTHFPHTFGGGTKVEIK | 4
3 | unnamed (protein) chain 1: EVQLVESGGGLVQPGGSLRLSCAASGFSFSDFAMSWVRQAPGKGLEWVATIGRVAFHTYYPDSMKGRFTISRDNSKNTLYLQMNSLRAEDTAVYYCARHRGFDVGHFDFWGQGTLVTVSS chain 2: DIQMTQSPSSLSASVGDRVTITCRSSETLVHSSGNTYLEWYQQKPGKAPKLLIYRVSNRFSGVPSRFSGSGSGTDFTLTISSLQPEDFATYYCFQGSFNPLTFGQGTKVEIK | 18
4 | unnamed (protein) chain 1: QVQLVQSGAEVKKPGSSVKVSCKASGYSFTDYHIHWVRQAPGQGLEWMGVINPMYGTTDYNQRFKGRVTITADESTSTAYMELSSLRSEDTAVYYCARYDYFTGTGVYWGQGTLVTVSS chain 2: DIVMTQTPLSLSVTPGQPASISCRSSRSLVHSRGNTYLHWYLQKPGQSPQLLIYKVSNRFIGVPDRFSGSGSGTDFTLKISRVEAEDVGVYYCSQSTHLPFTFGQGTKLEIK | 8.5
5 | unnamed (protein) chain 1: EVQLLESGGGLVQPGGSLRLSCAASGFTFSIYSMNWVRQAPGKGLEWVSSIGSSGGTTYYADSVKGRFTISRDNSKNTLYLQMNSLRAEDTAVYYCAGSQWLYGMDVWGQGTTVTVSS chain 2: DIQMTQSPSSLSASVGDRVTITCRSSQRIMTYLNWYQQKPGKAPKLLIFVASHSQSGVPSRFRGSGSETDFTLTISGLQPEDSATYYCQQSFWTPLTFGGGTKVEIK | 7.4
6 | unnamed (protein) chain 1: QVTLRESGPALVKPTQTLTLTCTVSGFSLSAYSVNWIRQPPGKALEWLAMIWGDGKIVYNSALKSRLTISKDTSKNQVVLTMTNMDPVDTATYYCAGDGYYPYAMDNWGQGSLVTVSS chain 2: DIVMTQSPDSLSVSLGERATINCRASKSVDSYGNSFMHWYQQKPGQPPKLLIYLASNLESGVPDRFSGSGSGTDFTLTISSLQAEDVAVYYCQQNNEDPRTFGGGTKVEIK | 30
7 | unnamed (protein) chain 1: EVQLVESGGGVVQPGRSLRLSCSASGFIFSRYDMSWVRQAPGKGLEWVAYISHGGAGTYYPDSVKGRFTISRDNSKNTLFLQMDSLRPEDTGVYFCARGGVTKGYFDVWGQGTPVTVSS chain 2: DIQMTQSPSSLSASVGDRVTITCRASGNIHNYLTWYQQTPGKAPKLLIYNAKTLADGVPSRFSGSGSGTDYTFTISSLQPEDIATYYCQHFWSIPYTFGQGTKLQIT | 16.8
8 | unnamed (protein) chain 1: QVQLVESGGGVVQPGRSLRLSCAASGFTFSSYGMHWVRQAPGKGLEWVAVISYEESNRYHADSVKGRFTISRDNSKITLYLQMNSLRTEDTAVYYCARDGGIAAPGPDYWGQGTLVTVSS chain 2: DIVMTQSPLSLTVTPGEPASISCRSSQSLLYSNGYNYLDWYLQKPGQSPQVLISLGSNRASGVPDRFSGSGSGTDFTLKISRVEAEDVGVYYCMQARQTPFTFGPGTKVDIR | 1.8
9 | unnamed (protein) chain 1: QVQLKESGPGLVAPSQSLSITCTVSGFSVTNYGVHWVRQPPGKGLEWLGVIWAGGITNYNSAFMSRLSISKDNSKSQVFLKMNSLQIDDTAMYYCASRGGHYGYALDYWGQGTSVTVSS chain 2: SIVMTQTPKFLLVSAGDRVTITCKASQSVSNDVTWYQQKAGQSPKLLIYSASNRYSGVPDRFTGSGYGTAFTFTISTVQAEDLAVYFCQQDYSSFGGGTKLEIK | 100
10 | unnamed (protein) chain 1: EVQLVQSGAEVKKPGASVKVSCKASGYRFTNYWIHWVRQAPGQGLEWIGGINPGNNYATYRRKFQGRVTMTADTSTSTVYMELSSLRSEDTAVYYCTREGYGNYGAWFAYWGQGTLVTVSS chain 2: DVQVTQSPSSLSASVGDRVTITCRSSQSLANSYGNTFLSWYLHKPGKAPQLLIYGISNRFSGVPDRFSGSGSGTDFTLTISSLQPEDFATYYCLQGTHQPYTFGQGTKVEIK | 2
11 | unnamed (protein) chain 1: QVQLVQPGAEVVKPGASVKLSCKTSGYTFTSNWMHWVKQAPGQGLEWIGEIDPSDSYTNYNQNFQGKAKLTVDKSTSTAYMEVSSLRSDDTAVYYCARGSNPYYYAMDYWGQGTSVTVSS chain 2: EIVLTQSPAIMSASPGERVTMTCSASSGVNYMHWYQQKPGTSPRRWIYDTSKLASGVPARFSGSGSGTSYSLTISSMEPEDAATYYCHQRGSYTFGGGTKLEIK | 0
12 | unnamed (protein) chain 1: EVQLVESGGGVVQPGRSLRLSCSASGFDFTTYWMSWVRQAPGKGLEWIGEIHPDSSTINYAPSLKDRFTISRDNAKNTLFLQMDSLRPEDTGVYFCASLYFGFPWFAYWGQGTPVTVSS chain 2: DIQLTQSPSSLSASVGDRVTITCKASQDVGTSVAWYQQKPGKAPKLLIYWTSTRHTGVPSRFSGSGSGTDFTFTISSLQPEDIATYYCQQYSLYRSFGQGTKVEIK | 0
13 | unnamed (protein) chain 1: EVKLEESGGGLVQPGGSMKLSCVASGFIFSNHWMNWVRQSPEKGLEWVAEIRSKSINSATHYAESVKGRFTISRDDSKSAVYLQMTDLRTEDTGVYYCSRNYYGSTYDYWGQGTTLTVSS chain 2: DILLTQSPAILSVSPGERVSFSCRASQFVGSSIHWYQQRTNGSPRLLIKYASESMSGIPSRFSGSGSGTDFTLSINTVESEDIADYYCQQSHSWPFTFGSGTNLEVK | 30.5
14 | unnamed (protein) chain 1: EVQLVESGGGLVQPGGSLRLSCAASGFTFNNYAMNWVRQAPGKGLDWVSTISGSGGTTNYADSVKGRFIISRDSSKHTLYLQMNSLRAEDTAVYYCAKDSNWGNFDLWGRGTLVTVSS chain 2: not shown | 3.9
15 | unnamed (protein) chain 1: EVQLLESGGGLVQPGGSLRLSCAASGFTFSHYIMMWVRQAPGKGLEWVSGIYSSGGITVYADSVKGRFTISRDNSKNTLYLQMNSLRAEDTAVYYCAYRRIGVPRRDEFDIWGQGTMVTVSS chain 2: DIQMTQSPSTLSASVGDRVTITCRASQSISSWLAWYQQKPGKAPKLLIYKASTLESGVPSRFSGSGSGTEFTLTISSLQPDDFATYYCQQYNTYWTFGQGTKVEIK | 7
16 | unnamed (protein) chain 1: QVQLVQSGAEVMKPGSSVKVSCKASGYTFSWYWLEWVRQAPGHGLEWMGEIDPGTFTTNYNEKFKARVTFTADTSTSTAYMELSSLRSEDTAVYYCARFSHFSGSNYDYFDYWGQGTLVTVSS chain 2: EIVMTQSPATLSVSPGERATLSCRASQSIGTNIHWYQQKPGQAPRLLIYYASESISGIPARFSGSGSGTEFTLTISSLQSEDFAVYYCQQSWSWPTTFGGGTKVEIK | 6.3
17 | unnamed (protein) chain 1: EVQLVESGGGLVRPGGSLRLSCAASGFTFSNYDMHWVRQATGKGLEWVSAITAAGDIYYPGSVKGRFTISRENAKNSLYLQMNSLRAGDTAVYYCARGRYSGSGSYYNDWFDPWGQGTLVTVSS chain 2: EIVLTQSPATLSLSPGERATLSCRASQSVSSYLAWYQQKPGQAPRLLIYDASNRATGIPARFSGSGSGTDFTLTISSLEPEDFAVYYCQQRSNWPLTFGGGTKVEIK | 3.6
18 | unnamed (protein) chain 1: EVQLVESGGGLVKPGGSLKLSCAASGFKFSRYAMSWVRQAPGKRLEWVATISSGGSYIYYPDSVKGRFTISRDNVKNTLYLQMSSLRSEDTAMYYCARRDYDLDYFDSWGQGTLVTVSS chain 2: DIQMTQSPSSLSASVGDRVTITCKASRDIRSYLTWYQQKPGKAPKTLIYYATSLADGVPSRFSGSGSGQDYSLTISSLESDDTATYYCLQHGESPFTLGSGTKLEIK | 15.8
19 | unnamed (protein) chain 1: QVQLVQSGAEVKKPGSSVKVSCKASGYTFTDYNMHWVRQAPGQGLEWIGYIYPYNGGTGYNQKFKSKATITADESTNTAYMELSSLRSEDTAVYYCARGRPAMDYWGQGTLVTVSS chain 2: DIQMTQSPSSLSASVGDRVTITCRASESVDNYGISFMNWFQQKPGKAPKLLIYAASNQGSGVPSRFSGSGSGTDFTLTISSLQPDDFATYYCQQSKEVPWTFGQGTKVEIK | 0
20 | unnamed (protein) chain 1: QVQLVQSGGGLVQPGGSLRLSCAASGFTFSSYYMSWVRQAPGKGLEWVSGIYSDGTTHYGDSVKGRFTISRDNAKNTVYLQLNSLRAEDTAMYYCAKGAGPTWWYALDAWGQGTLVTVSS chain 2: DIQLTQSPSSVSVSVGERVTIDCKSSQSVLSASNTYLNWYQQKPGQAPQLLIYYASTRESGVPDRFSGSGSGTDFTLTISSLQAEDAAVYYCQQAYRAPVTFGQGTKLEIK | 0
